Laboratory results published in paper PMC9015148 (2022).

Tests used:
RSV_FixBB = RSV_FixBB (UniProt P0AFA2); assay: SPR
Surf_03 = Surf_03 (UniProt P0AFA2); assay: SPR

B1: D25 Fab (Fab, V domains shown)
VH: QVQLVQSGAEVKKPGSSVMVSCQASGGPLRNYIINWLRQAPGQGPEWMGGIIPVLGTVHYAPKFQGRVTITADESTDTAYIHLISLRSEDTAMYYCATETALVVSTTYLPHYFDNWGQGTLVTVSS
VL: DIQMTQSPSSLSAAVGDRVTITCQASQDIVNYLNWYQQKPGKAPKLLIYVASNLETGVPSRFSGSGSGTDFSLTISSLQPEDVATYYCQQYDNLPLTFGGGTKVEIK
B1 was tested, and the Kd (RSV_FixBB) was 99 nM and the Kd (Surf_03) was 360 nM.
